This is an account of results in patent US7172865B2, “Rapid and sensitive assay for the detection and quantification of coregulators of nucleic acid binding factors” (Saint Louis University, priority 2001, dated 2007).

A value given as a limit tells only on which side of the number the result lay.

Experiment [1] concerns TRP2/TRP3 and TRP1/TRP4 duplexes. The experiment is described as follows: two-color simultaneous detection, fluorescein-labeled TrpR constructs. In kind it is binding. The conditions noted are these: excitation 490 nm, one protein only. An excerpt: The compatibility of the assays described in the instant invention with a variety of fluorescence probes emitting at different wavelengths allows for the designing of variations in which two or more proteins may be detected simultaneously. Nucleic acid constructs specific for each of the proteins to be detected may be labeled with probes that emit light at different wavelengths. In this example, the reaction mixture contained nucleic acid constructs labeled with 7-diethylaminocoumarin-3-carboxylic acid for detecting CAP protein (described in EXAMPLE 2) and nucleic acid constructs labeled with fluorescein for detecting TrpR protein (described in EXAMPLE 6). Specifically, 100 nM CAP5/CAP3, 120 nM CAP1/CAP4, 100 nM TRP2/TRP3, and 120 nM TRP1/TRP4 duplexes were present in the reaction mixture.
The fluorescence spectra with the excitation at 433 nm (excitation of 7-diethylaminocoumarin-3-carbo acid, FIG. 17A) and with the excitation at 490 nm (excitation of fluorescein, FIG. 17B) were recorded in the absence of the proteins (curves 1), in the presence of CAP only (curves 2), in the presence of TrpR only (curves 3), and in the presence of both CAP and TrpR (curves 4). In the presence of only CAP there was no change in the fluorescein signal (FIG. 17B, curve 2) whereas about 60% quenching of the 7-diethylaminocoumarin-3-carbox acid signal was observed (FIG. 17A, curve 2). […]

Another experiment has as its system CAP7/CAP8/CAP9 construct. The experiment can be described thus: CAP assay variant with DNA linked by a long flexible linker. The conditions noted are these: 75 nM CAP. In kind it is binding, E. coli. An excerpt: The properties of the assay illustrated in FIG. 1 depend upon the total concentration of the nucleic acid components. By covalently linking the two DNA duplexes—i.e., the components of the assay—by a long flexible linker, the assay becomes independent of DNA concentration, within a range of detectability of fluorescence signal and within a range of concentration required for efficient protein binding. FIG. 11 illustrates the design this variant of the assay for CAP detection. The nucleic acid components of the assay were covalently linked during oligonucleotide synthesis by introducing 12 moieties of the Spacer 18 phosphoramidate (Glen Research, Sterling, Va.), the structure of which is shown in FIG. 11B. The addition of 12 units of Spacer 18 results in a distance of ˜270 Å between the linked oligonucleotides. […]
FIG. 12 illustrates the enhanced performance of the variation of the invention depicted in FIG. 11. […] The kinetics of CAP induced fluorescence quenching was also studied to determine the incubation time necessary for the completion of the assay (FIG. 12B). In this experiment, the fluorescence intensity of 50 nM of the CAP7/CAP8/CAP9 construct was monitored as a function of time at 520 nm with the excitation wavelength set at 490 nm. At the time indicated by the arrow in FIG. 12B, 75 nM CAP protein was added and the monitoring of the fluorescence signal was resumed. […]

The test system of experiment [2] is CAP5/CAP3 and CAP4/CAP1 nucleic acid duplexes. The experiment is described as follows: CAP assay with 7-diethylaminocoumarin-3-carboxylic acid donor and dabcyl acceptor. In kind it is binding, E. coli. The conditions noted are these: 100 nM CAP, 50 nM duplexes, 200 μM cAMP. An excerpt: Amino-Modifier C2 dT (Glen Research, Sterling, Va.) was incorporated into positions that are equivalent to the positions at which fluorescein-dT and dabcyl-dT has been used previously in CAP2 and CAP4 oligonucleotides, respectively. Amino-Modifier C2 dT contains a reactive aliphatic amino group that can be used to covalently attach any amino-reactive fluorescence probe. CAP5 (SEQ ID NO:7) and CAP6 (SEQ ID NO:8) oligonucleotides were modified with 7-diethylaminocoumarin-3-carboxylic acid, succinimidyl ester. This fluorochrome is excited at 433 nm and the maximum emission occurs at 475 nm providing the possibility of testing the assay with different emission colors. To modify the […], ˜20 nmoles of the oligonucleotides were dissolved in 50 μl of 50 mM NaHCO3 (pH 8.3) and 50 nmoles of dry 7-diethylaminocoumarin-3-carboxylic acid, succinimidyl ester (Molecular Probes, Eugene, Oreg.) were added. The reaction mixture was incubated overnight at room temperature. […]
In the first experiment (FIG. 8), the pair of CAP5/CAP3 and CAP4/CAP1 nucleic acid duplexes were tested in the CAP assay. In this format, the 7-diethylaminocoumarin-3-carboxylic acid label present in the CAP5/CAP3 duplex functions as the fluorescence donor and the dabcyl label present in the CAP4/CAP1 duplex functions as a fluorescence acceptor.

B1: CAP: bacterial transcription activator from E. coli which binds DNA in a sequence specific, cAMP-dependent manner (protein, UniProt P0ACJ8 2-210, looked up)
DNA-binding transcriptional …: VLGKPQTDPTLEWFLSHCHIHKYPSKSTLIHQGEKAETLYYIVKGSVAVLIKDEEGKEMILSYLNQGDFIGELGLFEEGQERSAWVRAKTACEVAEISYKKFRQLIQVNPDILMRLSAQMARRLQVTSEKVGNLAFLDVTGRIAQTLLNLAKQPDAMTHPDGMQIKITRQEIGQIVGCSRETVGRILKMLEDQNLISAHGKTIVVYGTR
Take B1: the “quenching of the fluorescein signal” value in experiment [1] is given as “no change”. Besides, the “time for completion of the reaction” value in the experiment with CAP7/CAP8/CAP9 construct was at most 20 s. Also, the “quenching of the fluorescence signal” value is given as around 70% in the experiment on CAP7/CAP8/CAP9 construct (50 nM construct, 200 μM cAMP) and around 70% in experiment [2].
